Measurements: patent publication US20230159624A1

Legend:
[1] = target: MT1-MMP (R&D, 918-MP-010) (UniProt P50281); test: enzyme inhibition kinetics with fluorescent substrate, LS-55 spectrofluorimeter
[2] = target: MT1-MMP (R&D, 918-MP-010) (UniProt P50281); test: enzyme inhibition kinetics with fluorescent substrate Mca-K-P-L-G-L-Dpa-A-R-NH2, LS-55 spectrofluorimeter

Q: With “Wild Type TIMP-1 (inhibitory domain) (from UniProt P01033 24-149)” as the substance, how does the Ki^app [1] read?
A: > 150 nM

Q: What about the Ki^app [2] of the same substance?
A: 178 nM
